What all share (test): cryo-EM structure
In data set [1] the target is dihydrolipoyl transacetylase (E2) (porcine (endogenous in porcine heart mitochondria)).
The data set “cryo-EM structure” deals with the molecule itself.
The target of data set [2] is dihydrolipoamide dehydrogenase-binding protein (E3BP) (porcine (endogenous in porcine heart mitochondria)).

As for “pyruvate dehydrogenase (E1) α2β2 heterotetramer (from UniProt P29804 31-390) (complex)”, in data set [1], the N, LD per E1 heterotetramer stood at 1; the N, PSBD per E1 heterotetramer turned out to be 1; the percent of E1 heterotetramers with additional density (LD) turned out to be 82%; the ratio of E1 with LD bound to E1 without LD bound was found to be 4.5 times.
Take “dihydrolipoyl transacetylase (E2) (enzyme)”: the stoichiometry N in data set [1] was determined as 60.

B1: dihydrolipoyl dehydrogenase (E3) dimer (enzyme, UniProt P09623 36-509, looked up)
chain: ADQPIDADVTVIGSGPGGYVAAIKAAQLGFKTVCIEKNETLGGTCLNVGCIPSKALLNNSHYYHMAHGKDFASRGIEMSEVRLNLEKMMEQKSNAVKALTGGIAHLFKQNKVVRVNGYGKITGKNQVTATKADGSTEVINTKNILIATGSEVTPFPGITIDEDTVVSSTGALSLKKVPEKMVVIGAGVIGVELGSVWQRLGADVTAVELLGHVGGIGIDMEVSKNFQRILQKQGFKFKLNTKVIGATKKSDGNIDVSIEAASGGKAEVITCDVLLVCIGRRPFTQNLGLEELGIELDPRGRIPVNTRFQTKIPNIYAIGDVVAGPMLAHKAEDEGIICVEGMAGGAVHIDYNCVPSVIYTHPEVAWVGKSEEQLKEEGIEYKVGKFPFAANSRAKTNADTDGMVKILGQKSTDRVLGAHIIGPGAGEMINEAALALEYGASCEDIARVCHAHPTLSEAFREANLAASFGKAINF
Consider B1, for which the figures for the “stoichiometry N” value (in “cryo-EM structure”; in data set [2]) were 2 and 1, respectively.

The values above are taken from doi:10.1101/2024.02.01.578502 (bioRxiv, 2024).
